# Measurements: patent publication US20130281317A1 (ALLBERT EINSTEIN COLLEGE OF MEDICINE OF YESHIVA UNIVERSITY, published 2013)
# B1: 2G12 (Fab)2 fragment displayed bivalently on M13 phage from p2G12-Fab2zip (WT) (Fab, V domains shown, not shown: a dimerising Fc or GST; large carriers)
# VH: EVQLVESGGGLVKAGGSLILSCGVSNFRISAHTMNWVRRVPGGGLEWVASISTSSTYRDYADAVKGRFTVSRDDLEDFVYLQMHKMRVEDTAIYYCARKGSDRLSDNDPFDAWGPGTVVTVSP
# VL: VVMTQSPSTLSASVGDTITITCRASQSIETWLAWYQQKPGKAPKLLIYKASTLKTGVPSRFSGSGSGTEFTLTISGLQFDDFATYHCQHYAGYSATFGQGTRVEIKR
# notes: also called 2G12-Fab-biv phage; WT 2G12 clone
# Target: bovine serum albumin (BSA) (bovine, UniProt P02769 25-607)
# Sequence (P02769 25-607 limits assumed): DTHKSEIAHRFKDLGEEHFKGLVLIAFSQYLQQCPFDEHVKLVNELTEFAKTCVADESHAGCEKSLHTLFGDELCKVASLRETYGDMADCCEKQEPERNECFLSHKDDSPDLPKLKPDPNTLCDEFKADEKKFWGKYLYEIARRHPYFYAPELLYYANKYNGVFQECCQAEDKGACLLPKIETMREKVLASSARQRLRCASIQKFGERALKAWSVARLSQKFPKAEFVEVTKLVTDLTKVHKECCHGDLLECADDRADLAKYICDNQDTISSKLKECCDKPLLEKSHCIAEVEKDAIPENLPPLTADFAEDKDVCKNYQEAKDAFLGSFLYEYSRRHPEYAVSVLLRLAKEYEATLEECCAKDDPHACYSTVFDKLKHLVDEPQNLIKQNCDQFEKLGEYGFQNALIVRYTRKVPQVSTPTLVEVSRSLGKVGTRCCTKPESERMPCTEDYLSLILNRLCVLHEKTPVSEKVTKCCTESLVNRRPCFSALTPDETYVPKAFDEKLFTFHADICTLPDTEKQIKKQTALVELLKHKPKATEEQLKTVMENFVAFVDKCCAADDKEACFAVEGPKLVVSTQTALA
# Test: phage ELISA, coated wells
binder,measurement,value
B1,binding result,no binding
